These results are taken from paper PMC3847938, “Biochemical and kinetic characterisation of a novel xylooligosaccharide-upregulated GH43 β-D-xylosidase/α-L-arabinofuranosidase (BXA43) from the probiotic Bifidobacterium animalis subsp. lactis BB-12” (AMB Express, 2013).

One may read the Km as the concentration of substrate that gives half-maximal velocity. For orientation: kcat means the number of substrate molecules converted per active site and unit of time at saturation.

The target in series [1] is T1, BXA43 (Bifidobacterium animalis, UniProt B8DTK7).
T1 construct: gene xynB; full-length ORF 541 residues, C-terminal His-tag, pET24(+), E. coli BL21(DE3); theoretical mass 61,774 Da, about 62 kDa on SDS-PAGE
T1 sequence (B8DTK7 1-541): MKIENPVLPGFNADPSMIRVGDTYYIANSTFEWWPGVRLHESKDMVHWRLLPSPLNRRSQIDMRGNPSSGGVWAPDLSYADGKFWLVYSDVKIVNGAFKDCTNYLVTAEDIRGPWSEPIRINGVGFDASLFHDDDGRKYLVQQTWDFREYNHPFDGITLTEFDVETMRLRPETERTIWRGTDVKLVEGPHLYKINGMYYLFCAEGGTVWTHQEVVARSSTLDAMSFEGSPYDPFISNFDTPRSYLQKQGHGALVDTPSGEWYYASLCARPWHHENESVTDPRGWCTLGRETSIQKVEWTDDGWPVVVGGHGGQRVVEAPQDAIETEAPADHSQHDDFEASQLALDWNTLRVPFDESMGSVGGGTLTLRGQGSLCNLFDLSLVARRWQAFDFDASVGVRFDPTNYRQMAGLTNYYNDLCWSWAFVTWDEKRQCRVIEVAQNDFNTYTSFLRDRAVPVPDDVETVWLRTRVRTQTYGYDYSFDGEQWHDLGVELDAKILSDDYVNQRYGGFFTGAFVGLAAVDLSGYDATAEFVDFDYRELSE
Kind of series: p-nitrophenol release at […] nm, initial rates, fit with substrate inhibition. The following applies: 50 mM Na-acetate pH 5.2, 40 °C; substrate inhibition by pNPX itself (uncompetitive), second site. The class given is biochemical.

Substrate in series [2]: O=[N+]([O-])c1ccc(O[C@@H]2OC[C@@H](O)[C@H](O)[C@H]2O)cc1
Kind of series: purified protein. The format is biochemical, Bifidobacterium animalis. The settings on record: 50 mM Na-acetate pH 5.2, 40 °C, 0.25–80 mM pNPX, 7.8 nM enzyme, error printed as ± 4.6.

In series [1], `O=[N+]([O-])c1ccc(O[C@@H]2OC[C@@H](O)[C@H](O)[C@H]2O)cc1` [para-nitrophenyl-β-D-xylopyranoside] came in with a Ki of 29.6 ± 8.5 mM.

B1: BXA43 (Bifidobacterium animalis subsp. lactis AD011) (protein)
chain: T1 sequence (B8DTK7 1-541)
notes: full-length ORF 541 residues, C-terminal His-tag, pET24(+), E. coli BL21(DE3); theoretical mass 61,774 Da, about 62 kDa on SDS-PAGE
Turning to B1, in series [2], the Km is reported as 15.6 ± 4.2 mM and the kcat stood at 60.6 ± 10.8 s⁻¹.
